Publication PMC3938430, “Biochemical Characterization of a Haloalkane Dehalogenase DadB from Alcanivorax dieselolei B-5” (PLoS ONE, 2014)

What was measured:
Test in all cases: steady-state kinetics, gas chromatography (FID)
[1] = target: T1, DadB (Alloalcanivorax dieselolei, UniProt K0CAI2); type: biochemical; settings: 100 mM glycine buffer, pH 8.6, 37°C; substrate self-inhibition constant
T1 construct: gene B5T_00392; HLD-II subfamily, nucleophile D108
From the text: (§1) steady-state kinetics, gas chromatography (FID) on DadB

[2] = tested on: T2, BrCCBr; type: biochemical, Alloalcanivorax dieselolei; settings: 100 mM glycine buffer, pH 8.6, 37°C
T2 construct: HLD-II subfamily, nucleophile D108
From the text: as §1

[3] = tested on: BrCCCBr; type: biochemical, Alloalcanivorax dieselolei; settings: 100 mM glycine buffer, pH 8.6, 37°C
From the text: as §1

[4] = tested on: T3, C=C(C)CCl; type: biochemical, Alloalcanivorax dieselolei; settings: 100 mM glycine buffer, pH 8.6, 37°C
T3 construct: HLD-II subfamily, nucleophile D108
From the text: as §1

[5] = tested on: T4, C=C(Cl)CCl; type: biochemical, Alloalcanivorax dieselolei; settings: 100 mM glycine buffer, pH 8.6, 37°C
T4 construct: HLD-II subfamily, nucleophile D108
From the text: as §1

[6] = tested on: CCCCCl; type: biochemical, Alloalcanivorax dieselolei; settings: 100 mM glycine buffer, pH 8.6, 37°C
From the text: as §1

[7] = tested on: N#CCCCBr; type: biochemical, Alloalcanivorax dieselolei; settings: 100 mM glycine buffer, pH 8.6, 37°C, fit with substrate inhibition
From the text: as §1

## N#CCCCBr [4-bromobutanenitrile]
[1]
  k i: 17.93 ± 1.97 mM

## DadB (Alloalcanivorax dieselolei B5)
[2]
  Km: 8.70 ± 0.44 mM
  kcat: 17.9 ± 0.5 s⁻¹
  kcat/Km: 2060 M⁻¹ s⁻¹
[3]
  Km: 0.82 ± 0.04 mM
  kcat: 13.4 ± 0.99 s⁻¹
  kcat/Km: 16400 M⁻¹ s⁻¹
[4]
  Km: 11.33 ± 0.99 mM
  kcat: 34.3 ± 1.99 s⁻¹
  kcat/Km: 3020 M⁻¹ s⁻¹
[5]
  Km: 15.06 ± 1.37 mM
  kcat: 20.1 ± 1.09 s⁻¹
  kcat/Km: 1330 M⁻¹ s⁻¹
[6]
  Km: 4.88 ± 0.35 mM
  kcat: 1.17 ± 0.1 s⁻¹
  kcat/Km: 240 M⁻¹ s⁻¹
[7]
  Km: 8.47 ± 1.27 mM
  kcat: 30.8 ± 2.49 s⁻¹
  kcat/Km: 3640 M⁻¹ s⁻¹
